The target in one series is SHP2-C SH2. Nature of the series: SH2 binding enrichment of the phosphorylated peptide, bacterial display (enrichment ratio); higher = better substrate or ligand; peptides without Tyr show the background.
A further series has as its target c-Src SH2. Described as above.
The target of the next series is Grb2 SH2 (UniProt P62993). Described as above.
A further series has as its target Jak2 (UniProt O60674). The series is described as follows: phosphorylation enrichment, bacterial display (enrichment ratio); higher = better substrate or ligand; peptides without Tyr show the background.
A further series deals with MERTK (UniProt Q12866). The description is as above.
Chain of MERTK (Q12866 whole entry, looked up): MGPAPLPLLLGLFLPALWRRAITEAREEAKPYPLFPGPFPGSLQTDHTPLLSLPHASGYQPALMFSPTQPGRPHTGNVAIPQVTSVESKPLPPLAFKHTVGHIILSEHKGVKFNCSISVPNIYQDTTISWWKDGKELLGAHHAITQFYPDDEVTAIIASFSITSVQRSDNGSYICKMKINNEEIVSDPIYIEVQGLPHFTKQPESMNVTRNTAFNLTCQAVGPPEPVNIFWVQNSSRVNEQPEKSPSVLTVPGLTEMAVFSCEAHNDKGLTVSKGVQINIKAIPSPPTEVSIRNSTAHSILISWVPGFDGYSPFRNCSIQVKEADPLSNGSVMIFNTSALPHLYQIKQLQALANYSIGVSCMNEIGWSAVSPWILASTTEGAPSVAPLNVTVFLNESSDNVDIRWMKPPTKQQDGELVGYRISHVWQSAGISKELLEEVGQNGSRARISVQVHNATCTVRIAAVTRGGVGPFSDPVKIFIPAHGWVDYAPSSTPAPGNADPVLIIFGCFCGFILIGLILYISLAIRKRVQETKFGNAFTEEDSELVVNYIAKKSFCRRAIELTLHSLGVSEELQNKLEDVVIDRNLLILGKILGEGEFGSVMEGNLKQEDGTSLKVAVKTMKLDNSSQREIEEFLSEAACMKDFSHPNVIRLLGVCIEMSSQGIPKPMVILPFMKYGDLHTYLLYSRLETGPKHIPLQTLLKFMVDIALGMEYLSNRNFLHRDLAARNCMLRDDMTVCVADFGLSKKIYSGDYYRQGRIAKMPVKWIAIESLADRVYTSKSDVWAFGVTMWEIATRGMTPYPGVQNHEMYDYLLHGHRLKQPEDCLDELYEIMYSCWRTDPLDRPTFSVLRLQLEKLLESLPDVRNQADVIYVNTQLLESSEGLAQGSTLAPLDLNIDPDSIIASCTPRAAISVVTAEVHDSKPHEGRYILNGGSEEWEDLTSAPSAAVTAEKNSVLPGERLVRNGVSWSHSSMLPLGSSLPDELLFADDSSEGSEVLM
The next series addresses EPHB2 (UniProt P29323). Described as above.
A further series has as its system c-Src. Described as above.
Another series concerns the target Fyn (UniProt P06241). The series is described as above.
A further series addresses Fes (UniProt P07332). The description is as above.
A further series addresses EPHB1 (UniProt P54762). The description is as above.
The subject of another series is Fer (mouse). Described as above.
The subject of the next series is AncSZ. The description is as above.
Another series concerns the target FGFR3 (UniProt P22607). The description is as above.
For another series, the target named is Hck (UniProt P08631). The series is described as above.
The test system of the next series is c-Abl (mouse). The description is as above.
In another series the target is FGFR1 (UniProt P11362). The description is as above.
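Throughout, for SH2 binding enrichment of the phosphorylated peptide, bacterial display: peptide library displayed on the E. coli surface as eCPX fusions, selected cells deep-sequenced, score is each peptide's frequency after selection divided by its frequency in the input.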
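Throughout, for phosphorylation enrichment, bacterial display: 11-residue human phosphosite peptides and single-mutation variants displayed on the E. coli surface, counted by deep sequencing, each peptide's frequency after selection divided by its frequency in the unselected input library; frequency after pTyr selection over input frequency; kinase dosed for 20-30% of maximal phosphorylation in three min.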

Chain of EPHB1 (P54762 whole entry, looked up): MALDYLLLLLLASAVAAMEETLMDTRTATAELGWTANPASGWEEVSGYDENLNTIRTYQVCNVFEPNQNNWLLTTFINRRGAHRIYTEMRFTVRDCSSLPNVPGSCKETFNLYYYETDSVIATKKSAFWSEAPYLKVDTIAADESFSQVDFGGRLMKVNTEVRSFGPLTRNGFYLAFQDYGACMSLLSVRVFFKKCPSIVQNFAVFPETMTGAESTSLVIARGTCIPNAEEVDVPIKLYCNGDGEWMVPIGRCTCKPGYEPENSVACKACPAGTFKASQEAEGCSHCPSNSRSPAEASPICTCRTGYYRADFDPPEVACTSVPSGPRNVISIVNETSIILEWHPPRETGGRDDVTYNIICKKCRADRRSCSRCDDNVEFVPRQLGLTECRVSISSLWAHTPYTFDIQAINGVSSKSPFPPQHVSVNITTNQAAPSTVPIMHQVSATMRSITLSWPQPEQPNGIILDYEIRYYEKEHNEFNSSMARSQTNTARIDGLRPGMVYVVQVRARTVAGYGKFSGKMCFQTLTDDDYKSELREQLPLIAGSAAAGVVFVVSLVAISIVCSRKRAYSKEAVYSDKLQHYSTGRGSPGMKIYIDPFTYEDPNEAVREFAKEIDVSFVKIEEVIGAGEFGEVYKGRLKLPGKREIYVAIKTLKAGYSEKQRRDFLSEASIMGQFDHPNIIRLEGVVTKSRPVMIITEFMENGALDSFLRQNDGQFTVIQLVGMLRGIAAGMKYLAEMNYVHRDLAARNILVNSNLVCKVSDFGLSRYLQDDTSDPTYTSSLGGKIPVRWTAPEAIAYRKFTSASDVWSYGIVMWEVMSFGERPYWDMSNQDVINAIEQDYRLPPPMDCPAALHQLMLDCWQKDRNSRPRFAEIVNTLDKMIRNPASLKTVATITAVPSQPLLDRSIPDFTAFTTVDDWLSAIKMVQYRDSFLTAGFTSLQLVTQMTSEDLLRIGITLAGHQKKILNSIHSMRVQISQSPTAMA
Chain of EPHB2 (P29323 whole entry, looked up): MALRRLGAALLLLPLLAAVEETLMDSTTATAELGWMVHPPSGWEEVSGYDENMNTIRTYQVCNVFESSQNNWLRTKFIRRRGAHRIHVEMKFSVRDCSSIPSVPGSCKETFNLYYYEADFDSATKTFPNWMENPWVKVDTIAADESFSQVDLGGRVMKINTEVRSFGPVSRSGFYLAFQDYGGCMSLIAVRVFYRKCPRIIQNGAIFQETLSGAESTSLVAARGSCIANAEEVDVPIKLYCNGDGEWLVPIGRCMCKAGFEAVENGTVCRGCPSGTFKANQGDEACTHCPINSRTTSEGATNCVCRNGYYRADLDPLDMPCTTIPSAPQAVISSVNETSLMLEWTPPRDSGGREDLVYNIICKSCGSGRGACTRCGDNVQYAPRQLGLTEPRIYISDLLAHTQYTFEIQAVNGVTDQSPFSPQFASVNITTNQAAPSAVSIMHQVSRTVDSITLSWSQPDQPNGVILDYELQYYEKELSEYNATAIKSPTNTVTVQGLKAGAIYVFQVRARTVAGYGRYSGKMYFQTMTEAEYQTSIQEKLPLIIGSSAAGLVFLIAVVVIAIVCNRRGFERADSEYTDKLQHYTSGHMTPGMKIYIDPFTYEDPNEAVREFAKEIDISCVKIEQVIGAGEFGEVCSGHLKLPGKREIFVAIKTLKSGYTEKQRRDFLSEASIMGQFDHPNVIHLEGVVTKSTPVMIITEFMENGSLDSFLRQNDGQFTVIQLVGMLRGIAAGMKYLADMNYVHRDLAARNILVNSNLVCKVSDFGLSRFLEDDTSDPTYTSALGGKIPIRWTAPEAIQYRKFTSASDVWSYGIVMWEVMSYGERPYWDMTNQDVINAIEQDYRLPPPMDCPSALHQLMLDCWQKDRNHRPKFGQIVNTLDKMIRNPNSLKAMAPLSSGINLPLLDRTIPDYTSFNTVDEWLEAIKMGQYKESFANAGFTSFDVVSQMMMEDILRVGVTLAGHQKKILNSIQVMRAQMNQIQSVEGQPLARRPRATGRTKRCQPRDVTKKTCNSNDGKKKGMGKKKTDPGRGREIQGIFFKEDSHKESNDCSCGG
Chain of Fyn (P06241 whole entry, looked up): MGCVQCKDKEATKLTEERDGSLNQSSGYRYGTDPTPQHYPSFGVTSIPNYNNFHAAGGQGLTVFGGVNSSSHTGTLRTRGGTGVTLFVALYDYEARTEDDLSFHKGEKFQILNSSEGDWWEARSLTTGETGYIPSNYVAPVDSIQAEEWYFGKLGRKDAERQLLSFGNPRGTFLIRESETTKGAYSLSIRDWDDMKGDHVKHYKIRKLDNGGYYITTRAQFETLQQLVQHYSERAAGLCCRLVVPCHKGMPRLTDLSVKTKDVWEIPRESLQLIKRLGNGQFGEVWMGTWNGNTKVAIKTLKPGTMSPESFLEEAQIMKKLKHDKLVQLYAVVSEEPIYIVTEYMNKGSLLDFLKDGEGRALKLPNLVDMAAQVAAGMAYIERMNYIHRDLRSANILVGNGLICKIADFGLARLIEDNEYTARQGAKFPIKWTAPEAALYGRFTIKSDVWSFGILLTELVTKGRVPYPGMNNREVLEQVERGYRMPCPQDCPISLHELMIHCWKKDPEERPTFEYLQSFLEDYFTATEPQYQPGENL
Chain of FGFR3 (P22607 whole entry, looked up): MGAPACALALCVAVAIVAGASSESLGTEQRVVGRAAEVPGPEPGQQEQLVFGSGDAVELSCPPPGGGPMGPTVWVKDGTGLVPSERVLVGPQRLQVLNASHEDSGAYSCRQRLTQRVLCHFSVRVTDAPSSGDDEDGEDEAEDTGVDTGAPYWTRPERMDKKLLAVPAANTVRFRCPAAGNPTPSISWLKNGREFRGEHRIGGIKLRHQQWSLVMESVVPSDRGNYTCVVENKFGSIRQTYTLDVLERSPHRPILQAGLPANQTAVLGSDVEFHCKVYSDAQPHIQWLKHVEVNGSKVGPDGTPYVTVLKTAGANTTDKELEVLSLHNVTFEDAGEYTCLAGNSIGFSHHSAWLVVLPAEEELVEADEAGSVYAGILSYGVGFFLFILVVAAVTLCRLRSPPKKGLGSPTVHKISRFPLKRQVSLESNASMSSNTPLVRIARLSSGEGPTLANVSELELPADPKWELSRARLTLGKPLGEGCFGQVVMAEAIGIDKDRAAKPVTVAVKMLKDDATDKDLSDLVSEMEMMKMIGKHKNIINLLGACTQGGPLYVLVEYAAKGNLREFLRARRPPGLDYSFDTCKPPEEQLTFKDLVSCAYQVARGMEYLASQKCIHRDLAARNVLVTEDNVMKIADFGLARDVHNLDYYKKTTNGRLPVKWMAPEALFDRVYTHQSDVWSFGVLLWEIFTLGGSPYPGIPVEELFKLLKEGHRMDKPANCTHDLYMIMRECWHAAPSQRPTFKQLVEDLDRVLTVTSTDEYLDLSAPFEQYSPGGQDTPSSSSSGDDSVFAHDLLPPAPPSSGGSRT
Chain of Grb2 SH2 (P62993 whole entry, looked up): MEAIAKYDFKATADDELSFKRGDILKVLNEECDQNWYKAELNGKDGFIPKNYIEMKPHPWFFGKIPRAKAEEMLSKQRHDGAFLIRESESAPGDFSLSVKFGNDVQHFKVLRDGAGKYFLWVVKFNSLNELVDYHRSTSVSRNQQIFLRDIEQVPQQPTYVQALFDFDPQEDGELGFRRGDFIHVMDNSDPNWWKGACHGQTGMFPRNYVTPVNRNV

With FTRNYYVWAVL [CYBA_Y88_R90W], the SH2 binding enrichment with SHP2-C SH2 amounted to 1.11; with c-Src SH2, 0.581; with Grb2 SH2, 1.04. For the same sequence, the phosphorylation enrichment with Jak2 stood at 1.84; with MERTK, 3.54; with EPHB2, 1.55; in the series on c-Src, 0.506; with Fyn, 0.858; with Fes, 1.7. The phosphorylation enrichment in the series with EPHB1 was 3.79; with Fer (mouse), 1.42; with AncSZ, 1.6; with FGFR3 it was 5.58; with Hck, 0.75; with c-Abl (mouse), 12. Besides, the phosphorylation enrichment in the series with FGFR1 amounted to 6.92.

For FYDANYDGKEY [MAPRE2_Y162], the SH2 binding enrichment amounted to 0.473 in the series with SHP2-C SH2, 0.725 in the series with c-Src SH2 and 0.823 with Grb2 SH2. The phosphorylation enrichment with Jak2 came out at 1.14; in the series with MERTK it was 1.17; in the series with EPHB2 it was 1.23; in the series with c-Src it was 0.941; with Fyn it was 0.642; with Fes, 1.37. Moreover, the phosphorylation enrichment with EPHB1 was found to be 0.63; in the series on Fer (mouse), 0.627; in the series with AncSZ, 1.22; with FGFR3 it was 0.796; with Hck, 0.83; in the series on c-Abl (mouse), 0.712. Besides, the phosphorylation enrichment with FGFR1 stood at 0.699.

Regarding FYVVRYCWLRR [MPZ_Y181], the SH2 binding enrichment with SHP2-C SH2 is 0.565; with c-Src SH2, 0.545; with Grb2 SH2 it was 0.761. The phosphorylation enrichment with Jak2 is 0.596; with MERTK it was 0.604; with EPHB2 it was 0.508; in the series on c-Src, 0.612; in the series with Fyn it was 0.62; with Fes, 0.747. For the same sequence, the phosphorylation enrichment in the series with EPHB1 worked out at 0.496; in the series on Fer (mouse) it was 0.51; with AncSZ it was 0.869; with FGFR3, 0.614; with Hck it was 0.567; in the series on c-Abl (mouse), 0.758. The phosphorylation enrichment with FGFR1 is 0.595.

Regarding GDDLSYGDVPP [IRS1_Y151_E147D], the SH2 binding enrichment with SHP2-C SH2 worked out at 0.549; in the series with c-Src SH2, 0.573; with Grb2 SH2, 0.752. For the same sequence, the phosphorylation enrichment with Jak2 came to 1.04; with MERTK, 0.413; with EPHB2 it was 0.588; with c-Src, 0.63; in the series with Fyn, 0.426; with Fes it was 1.24. Besides, the phosphorylation enrichment in the series with EPHB1 was found to be 0.543; in the series with Fer (mouse), 0.61; in the series on AncSZ, 1.11; in the series with FGFR3, 0.576; with Hck it was 0.535; in the series on c-Abl (mouse) it was 0.751. Moreover, in the series with FGFR1, the phosphorylation enrichment amounted to 0.479.

As for GDFLSYREFHS [ERBIN_Y1107_YF], the SH2 binding enrichment with SHP2-C SH2 turned out to be 0.639; in the series with c-Src SH2 it was 0.49; in the series with Grb2 SH2, 0.741. Moreover, the phosphorylation enrichment was 0.557 with Jak2; 0.359 with MERTK; 0.469 in the series with EPHB2; 0.423 in the series on c-Src; 0.348 with Fyn; 0.686 with Fes. In addition, the phosphorylation enrichment with EPHB1 came to 0.386; with Fer (mouse), 0.489; in the series on AncSZ, 0.625; with FGFR3 it was 0.567; with Hck, 0.385; in the series with c-Abl (mouse) it was 0.534. In addition, the phosphorylation enrichment in the series with FGFR1 turned out to be 0.432.

On to GESKDYALHAG [SVIL_Y185_V189A], for which the SH2 binding enrichment in the series with SHP2-C SH2 came out at 0.739; in the series with c-Src SH2, 0.521; in the series with Grb2 SH2, 0.78. For the same sequence, the phosphorylation enrichment turned out to be 0.493 with Jak2; 0.36 in the series with MERTK; 0.527 in the series with EPHB2; 0.413 in the series on c-Src; 0.421 in the series with Fyn; 0.566 in the series with Fes. Also, the phosphorylation enrichment with EPHB1 amounted to 0.479; in the series with Fer (mouse), 0.366; with AncSZ it was 0.548; with FGFR3, 0.455; in the series with Hck, 0.38; in the series with c-Abl (mouse), 0.488. Besides, the phosphorylation enrichment with FGFR1 turned out to be 0.365.

Take GGFTCCCDGKK [PROS1_Y266_Y266C_YF]: the SH2 binding enrichment with SHP2-C SH2 came to 0.62; with c-Src SH2 it was 0.451; with Grb2 SH2, 0.787. Also, the phosphorylation enrichment came to 1.16 with Jak2; 0.468 with MERTK; 0.659 in the series with EPHB2; 0.546 in the series with c-Src; 0.463 with Fyn; 1.34 in the series with Fes. Further, the phosphorylation enrichment in the series with EPHB1 is 0.736; in the series with Fer (mouse) it was 0.542; with AncSZ it was 1.12; in the series with FGFR3 it was 0.755; with Hck, 0.504; in the series on c-Abl (mouse), 0.977. Further, in the series with FGFR1, the phosphorylation enrichment was 0.509.

The record behind these values is the supplement of paper PMC10065799, “High-throughput profiling of sequence recognition by tyrosine kinases and SH2 domains using bacterial peptide display” (eLife, 2023).
